One series deals with biotinyl-Val-oxazolone. The series can be described thus: self-aminoacylation, catalytic enhancement (BVO) (fold over background); higher = more active; k-Seq, kA / k0A0; sequences stand for … in GGGAAUGGAUCCACAUCUACGAAUUC…UUCACUGCAGACUUGACGAAGCUG
Summed up: (§1)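 Mutagenized RNA pools (0.43 μM; 21-nt variable region) were treated with 2–1250 μM of each biotinyl-aminoacyl-oxazolone. Conditions were 50 μL HEPES/NaCl/KCl/MgCl2/CaCl2 buffer, 5% acetonitrile, pH 6.9–7.0, room temperature, 90 minutes. Catalytic enhancement, the median kA relative to the uncatalyzed rate, was derived from streptavidin capture, qPCR and Illumina sequencing.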

Another series has as its system biotinyl-Trp-oxazolone. The series can be described thus: self-aminoacylation, catalytic enhancement (BWO) (fold over background); higher = more active; k-Seq, kA / k0A0; sequences stand for … in GGGAAUGGAUCCACAUCUACGAAUUC…UUCACUGCAGACUUGACGAAGCUG
An outline of the steps: as §1

For another series, the system named is biotinyl-Met-oxazolone. The series can be described thus: self-aminoacylation, catalytic enhancement (BMO) (fold over background); higher = more active; k-Seq, kA / k0A0; sequences stand for … in GGGAAUGGAUCCACAUCUACGAAUUC…UUCACUGCAGACUUGACGAAGCUG
Summed up:
as §1

A further series relates to biotinyl-Leu-oxazolone. The series can be described thus: self-aminoacylation, catalytic enhancement (BLO) (fold over background); higher = more active; k-Seq, kA / k0A0; sequences stand for … in GGGAAUGGAUCCACAUCUACGAAUUC…UUCACUGCAGACUUGACGAAGCUG
An outline of the steps:
as §1

In another series the test system is biotinyl-Phe-oxazolone. Nature of the series: self-aminoacylation, catalytic enhancement (BFO) (fold over background); higher = more active; k-Seq, kA / k0A0; sequences stand for … in GGGAAUGGAUCCACAUCUACGAAUUC…UUCACUGCAGACUUGACGAAGCUG
An outline of the steps:
as §1

In the next series the test system is biotinyl-Ile-oxazolone. The series can be described thus: self-aminoacylation, catalytic enhancement (BIO) (fold over background); higher = more active; k-Seq, kA / k0A0; sequences stand for … in GGGAAUGGAUCCACAUCUACGAAUUC…UUCACUGCAGACUUGACGAAGCUG
Summed up: as §1

Variants at the floor of the assay were thinned out.

Turning to “AUUGACCUAGGUCAACGGGUG [Fam2.2 aminoacylation ribozyme variant]”, the self-aminoacylation turned out to be 2.31 with biotinyl-Val-oxazolone; 2.72 with biotinyl-Trp-oxazolone; 2.6 in the series on biotinyl-Met-oxazolone; 2.43 in the series on biotinyl-Leu-oxazolone; 8.47 with biotinyl-Phe-oxazolone; 2.46 with biotinyl-Ile-oxazolone.

With “AUUACCCAGGUAAUCGAGUGA [Fam2.1 aminoacylation ribozyme variant]”, the self-aminoacylation in the series on biotinyl-Val-oxazolone was 3.56; with biotinyl-Trp-oxazolone, 9.28; with biotinyl-Met-oxazolone, 7.57; in the series with biotinyl-Leu-oxazolone, 8.05; in the series with biotinyl-Phe-oxazolone, 44.6; in the series on biotinyl-Ile-oxazolone it was 3.26.

For the sequence “CUAGUUCAAACAAUCGGUGUG [Fam1A.1 aminoacylation ribozyme variant]”, the self-aminoacylation came out at 0.947 with biotinyl-Val-oxazolone; 1.79 in the series on biotinyl-Trp-oxazolone; 1.4 with biotinyl-Met-oxazolone; 1.63 in the series with biotinyl-Leu-oxazolone; 1.63 in the series with biotinyl-Phe-oxazolone; 0.992 with biotinyl-Ile-oxazolone.

In the case of “CCUUACUUCAAGCAAUCGGUC [Fam1B.1 aminoacylation ribozyme variant]”, the self-aminoacylation with biotinyl-Val-oxazolone is 1.08; in the series on biotinyl-Trp-oxazolone, 13; in the series with biotinyl-Met-oxazolone it was 1.06; in the series on biotinyl-Leu-oxazolone, 1.3; in the series with biotinyl-Phe-oxazolone it was 31.6; in the series with biotinyl-Ile-oxazolone, 1.09.

For the sequence “CGGUUUGCUAAUAGUCGCAAG [Fam3.1 aminoacylation ribozyme variant]”, the self-aminoacylation was found to be 1.18 with biotinyl-Val-oxazolone; 1.68 in the series on biotinyl-Trp-oxazolone; 1.17 in the series with biotinyl-Met-oxazolone; 1.17 in the series with biotinyl-Leu-oxazolone; 2.27 in the series with biotinyl-Phe-oxazolone; 1.18 in the series with biotinyl-Ile-oxazolone.

Consider “CUAGUUCAAACAAUGGGUCUG [Fam1A.1 aminoacylation ribozyme variant]”, for which the self-aminoacylation turned out to be 0.851 with biotinyl-Val-oxazolone; 0.678 in the series on biotinyl-Trp-oxazolone; 1.1 with biotinyl-Met-oxazolone; 1.08 in the series on biotinyl-Leu-oxazolone; 0.792 in the series with biotinyl-Phe-oxazolone; 1.14 with biotinyl-Ile-oxazolone.

Turning to “UUUCACCUAGGUCAUAGGGUG [Fam2.2 aminoacylation ribozyme variant]”, the self-aminoacylation is 1.3 in the series with biotinyl-Val-oxazolone; 1.23 with biotinyl-Trp-oxazolone; 1.28 with biotinyl-Met-oxazolone; 1.38 with biotinyl-Leu-oxazolone; 1.69 in the series with biotinyl-Phe-oxazolone; 1.41 with biotinyl-Ile-oxazolone.

Take “CCACAAUUGAAGCAAUCGGUC [Fam1B.1 aminoacylation ribozyme variant]”: the self-aminoacylation was 0.869 in the series with biotinyl-Val-oxazolone; 1.16 with biotinyl-Trp-oxazolone; 0.746 in the series with biotinyl-Met-oxazolone; 0.716 in the series on biotinyl-Leu-oxazolone; 0.687 in the series on biotinyl-Phe-oxazolone; 0.913 in the series on biotinyl-Ile-oxazolone.

“AAGUUUCCUAAGAGUCGCAAG [Fam3.1 aminoacylation ribozyme variant]”: the self-aminoacylation in the series with biotinyl-Val-oxazolone was determined as 1.31; in the series with biotinyl-Trp-oxazolone, 0.936; with biotinyl-Met-oxazolone, 1.04; with biotinyl-Leu-oxazolone, 1.24; in the series with biotinyl-Phe-oxazolone, 1.17; in the series on biotinyl-Ile-oxazolone, 1.29.

As to “AUUACCCUGUCCAUCGAGUGA [Fam2.1 aminoacylation ribozyme variant]”, the self-aminoacylation is 5.38 in the series with biotinyl-Val-oxazolone; 14.8 with biotinyl-Trp-oxazolone; 10.6 in the series on biotinyl-Met-oxazolone; 11.3 with biotinyl-Leu-oxazolone; 70.4 with biotinyl-Phe-oxazolone; 5.63 in the series with biotinyl-Ile-oxazolone.

With “AUUACCCCGGUCAUCUAGUGA [Fam2.1 aminoacylation ribozyme variant]”, the self-aminoacylation in the series on biotinyl-Val-oxazolone came to 3.96; with biotinyl-Trp-oxazolone it was 8.95; with biotinyl-Met-oxazolone, 7.8; in the series with biotinyl-Leu-oxazolone it was 8.24; in the series with biotinyl-Phe-oxazolone it was 47.1; in the series with biotinyl-Ile-oxazolone, 4.31.

Regarding “AAGUUUGCUAUUGGUCGCAAG [Fam3.1 aminoacylation ribozyme variant]”, the self-aminoacylation in the series with biotinyl-Val-oxazolone is 0.76; in the series on biotinyl-Trp-oxazolone, 0.66; in the series with biotinyl-Met-oxazolone it was 0.756; in the series on biotinyl-Leu-oxazolone it was 1.05; in the series on biotinyl-Phe-oxazolone, 1.46; in the series on biotinyl-Ile-oxazolone, 0.787.

Take “AUUCACCUAGGUCGUCGGAUG [Fam2.2 aminoacylation ribozyme variant]”: the self-aminoacylation worked out at 1.12 in the series with biotinyl-Val-oxazolone; 0.507 with biotinyl-Trp-oxazolone; 0.982 with biotinyl-Met-oxazolone; 0.929 in the series on biotinyl-Leu-oxazolone; 0.37 in the series on biotinyl-Phe-oxazolone; 0.909 in the series on biotinyl-Ile-oxazolone.

On to “AUUCACCUAGGUCAUCCGAUG [Fam2.2 aminoacylation ribozyme variant]”, for which the self-aminoacylation amounted to 1.95 in the series with biotinyl-Val-oxazolone; 1.09 in the series on biotinyl-Trp-oxazolone; 1.54 with biotinyl-Met-oxazolone; 1.24 in the series on biotinyl-Leu-oxazolone; 2.62 in the series on biotinyl-Phe-oxazolone; 1.43 with biotinyl-Ile-oxazolone.

In the case of “CUACUUCAACCCAUCGGUCUG [Fam1A.1 aminoacylation ribozyme variant]”, the self-aminoacylation stood at 0.983 in the series on biotinyl-Val-oxazolone; 0.838 in the series on biotinyl-Trp-oxazolone; 0.722 in the series with biotinyl-Met-oxazolone; 0.943 in the series with biotinyl-Leu-oxazolone; 0.647 in the series on biotinyl-Phe-oxazolone; 0.983 in the series on biotinyl-Ile-oxazolone.

Take “AUUACCUUGUUCAUCGAGUGA [Fam2.1 aminoacylation ribozyme variant]”: the self-aminoacylation in the series on biotinyl-Val-oxazolone was 3.95; with biotinyl-Trp-oxazolone, 8.47; with biotinyl-Met-oxazolone, 6.95; in the series with biotinyl-Leu-oxazolone it was 6.6; with biotinyl-Phe-oxazolone it was 26.1; with biotinyl-Ile-oxazolone, 3.4.

“ACUCACCUAGGUCAUUGGGUG [Fam2.2 aminoacylation ribozyme variant]”: the self-aminoacylation in the series on biotinyl-Val-oxazolone amounted to 2.56; in the series on biotinyl-Trp-oxazolone, 3.78; with biotinyl-Met-oxazolone, 2.35; in the series on biotinyl-Leu-oxazolone, 2.91; in the series with biotinyl-Phe-oxazolone, 14.3; in the series with biotinyl-Ile-oxazolone it was 2.31.

Take “AUUACCCAGGUCAUCGAUUGA [Fam2.1 aminoacylation ribozyme variant]”: the self-aminoacylation was 0.759 with biotinyl-Val-oxazolone; 0.511 in the series with biotinyl-Trp-oxazolone; 0.825 in the series on biotinyl-Met-oxazolone; 0.826 in the series on biotinyl-Leu-oxazolone; 0.642 with biotinyl-Phe-oxazolone; 0.872 in the series on biotinyl-Ile-oxazolone.

As to “CUACUUCAAACAAUCAGUCUU [Fam1A.1 aminoacylation ribozyme variant]”, the self-aminoacylation in the series on biotinyl-Val-oxazolone worked out at 0.942; with biotinyl-Trp-oxazolone it was 4.96; in the series on biotinyl-Met-oxazolone, 0.854; in the series with biotinyl-Leu-oxazolone, 0.935; in the series on biotinyl-Phe-oxazolone, 13.2; with biotinyl-Ile-oxazolone, 0.938.

With “AUUACACUGGUCAUCGAGUGA [Fam2.1 aminoacylation ribozyme variant]”, the self-aminoacylation with biotinyl-Val-oxazolone worked out at 3.09; with biotinyl-Trp-oxazolone, 6.94; with biotinyl-Met-oxazolone, 5.44; in the series on biotinyl-Leu-oxazolone it was 5.86; in the series with biotinyl-Phe-oxazolone, 19.7; with biotinyl-Ile-oxazolone, 3.17.

On to “UCUCACUUCAAGCAAUCGGUC [Fam1B.1 aminoacylation ribozyme variant]”, for which the self-aminoacylation with biotinyl-Val-oxazolone was 1.35; in the series with biotinyl-Trp-oxazolone, 21.5; in the series on biotinyl-Met-oxazolone it was 1.15; in the series with biotinyl-Leu-oxazolone it was 1.71; with biotinyl-Phe-oxazolone, 44.5; with biotinyl-Ile-oxazolone, 1.23.

As for “CCACAGUUCAAGCAAUCGGGC [Fam1B.1 aminoacylation ribozyme variant]”, the self-aminoacylation in the series with biotinyl-Val-oxazolone was 2.42; with biotinyl-Trp-oxazolone, 3.13; in the series with biotinyl-Met-oxazolone, 2.81; in the series with biotinyl-Leu-oxazolone, 2.18; in the series with biotinyl-Phe-oxazolone, 10; with biotinyl-Ile-oxazolone, 2.04.

For the sequence “AUUGCCCUGGUCACCGAGUGA [Fam2.1 aminoacylation ribozyme variant]”, the self-aminoacylation in the series with biotinyl-Val-oxazolone worked out at 4.68; in the series on biotinyl-Trp-oxazolone, 9.72; in the series on biotinyl-Met-oxazolone, 9.41; in the series with biotinyl-Leu-oxazolone, 10.8; in the series on biotinyl-Phe-oxazolone, 70; in the series on biotinyl-Ile-oxazolone, 3.77.

As for “AAGUAUGCUAAUAGUAGCAAG [Fam3.1 aminoacylation ribozyme variant]”, the self-aminoacylation in the series on biotinyl-Val-oxazolone was 1.46; in the series with biotinyl-Trp-oxazolone it was 0.882; with biotinyl-Met-oxazolone, 1.22; in the series with biotinyl-Leu-oxazolone, 1.54; in the series with biotinyl-Phe-oxazolone, 1.46; in the series on biotinyl-Ile-oxazolone it was 1.53.

Consider “CUACUUCAAACCAUAGGUCUG [Fam1A.1 aminoacylation ribozyme variant]”, for which the self-aminoacylation is 0.809 in the series with biotinyl-Val-oxazolone; 0.487 in the series on biotinyl-Trp-oxazolone; 0.47 in the series on biotinyl-Met-oxazolone; 0.615 in the series on biotinyl-Leu-oxazolone; 0.985 with biotinyl-Phe-oxazolone; 0.807 in the series with biotinyl-Ile-oxazolone.

The values are drawn from the supplement of paper PMC9233669.
